T1: PTH1 receptor expressed on mammalian cells (UniProt Q03431 27-593, limits assumed)
T1 sequence (looked up): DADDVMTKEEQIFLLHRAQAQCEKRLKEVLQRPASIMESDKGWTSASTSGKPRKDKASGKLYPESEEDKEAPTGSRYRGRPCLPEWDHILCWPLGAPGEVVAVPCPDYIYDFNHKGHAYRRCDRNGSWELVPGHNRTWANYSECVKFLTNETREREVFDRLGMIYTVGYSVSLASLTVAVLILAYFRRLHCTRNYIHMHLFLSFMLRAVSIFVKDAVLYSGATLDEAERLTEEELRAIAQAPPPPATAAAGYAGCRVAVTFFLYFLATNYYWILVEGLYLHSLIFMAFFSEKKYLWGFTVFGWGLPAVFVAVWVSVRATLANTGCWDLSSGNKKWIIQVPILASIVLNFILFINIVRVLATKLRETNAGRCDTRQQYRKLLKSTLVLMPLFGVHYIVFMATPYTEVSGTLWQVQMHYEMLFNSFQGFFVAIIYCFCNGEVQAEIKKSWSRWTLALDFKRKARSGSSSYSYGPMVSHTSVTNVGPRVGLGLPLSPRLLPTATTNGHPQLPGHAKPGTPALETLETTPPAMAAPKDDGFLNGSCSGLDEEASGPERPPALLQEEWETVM


Columns and labels:
[1] = target: T1, PTH1 receptor expressed on mammalian …; assay: cell-based or functional assay
[2] = target: human GLP-1 receptor (GLP1R) stably expressed on PathHunter cells (human, UniProt P43220 24-463); assay: cell-based or functional assay

Calcium EC50 [1]	cAMP EC50 [1]	EC50, recruitment of beta-Arrestin [2]	Binder
14 nM	0.0186 nM	–	SVSEIQLMHNLGKHLNSMERVEWLRKKLQDVHNFC (C-terminal cysteine thiol conjugated to VitD-(3)-PEG2K-maleimide carrier) [PTH-C-PEG2K-(3)-VitD]
–	–	510 nM	HAEGTFTSDVSSYLEGQAAKEFIAWLVKGRGC (C-terminal cysteine thiol conjugated to VitD-(25)-PEG2K-maleimide carrier) [GLP-1-C-PEG2K-(25)-VitD]
–	–	520 nM	HAEGTFTSDVSSYLEGQAAKEFIAWLVKGRGC (C-terminal cysteine thiol conjugated to VitD-(3)-PEG2K-maleimide carrier) [GLP-1-C-PEG2K-(3)-VitD]

Source: patent publication US20190183966A1 (EXTEND BIOSCIENCES, published 2019)
